Legend:
YFP-WUS-HD = target: T1, YFP-WUS-HD (Arabidopsis thaliana, UniProt Q9SB92 34-103); assay: MST; MST: 20 mM Tris-HCl pH 8.0, 75 mM NaCl, 10 mM MgCl2, 0.05% Tween-20, 20 C, 50 nM YFP-WUS; ITC: same without Tween, 20 C; EMSA: 10 mM Tris-HCl pH 8.0, 75 mM NaCl, 50 ug/ml poly(dI-dC), 1 mM EDTA, 1 mM DTT, 5% glycerol; details: protein: recombinant; tags: N-terminal His6-YFP, C-terminal StrepII; blunt
T1 sequence: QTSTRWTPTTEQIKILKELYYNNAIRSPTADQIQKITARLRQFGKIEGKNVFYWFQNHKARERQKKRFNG

WUS-HD [1] = target: T2, WUS-HD (Arabidopsis thaliana, UniProt Q9SB92 34-103); assay: ITC; first binding event (Kd,1), sequential model, 2:1; MST: 20 mM Tris-HCl pH 8.0, 75 mM NaCl, 10 mM MgCl2, 0.05% Tween-20, 20 C, 50 nM YFP-WUS; ITC: same without Tween, 20 C; EMSA: 10 mM Tris-HCl pH 8.0, 75 mM NaCl, 50 ug/ml poly(dI-dC), 1 mM EDTA, 1 mM DTT, 5% glycerol; details: protein: recombinant; tags: none after TEV cleavage (from His6-MBP); blunt
T2 sequence: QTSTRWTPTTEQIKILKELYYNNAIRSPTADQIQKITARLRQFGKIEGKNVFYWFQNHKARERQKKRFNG

YFP-WUS-HD I66A = target: T3, YFP-WUS-HD I66A (Arabidopsis thaliana, UniProt Q9SB92 34-103, I66A); assay: MST; MST: 20 mM Tris-HCl pH 8.0, 75 mM NaCl, 10 mM MgCl2, 0.05% Tween-20, 20 C, 50 nM YFP-WUS; ITC: same without Tween, 20 C; EMSA: 10 mM Tris-HCl pH 8.0, 75 mM NaCl, 50 ug/ml poly(dI-dC), 1 mM EDTA, 1 mM DTT, 5% glycerol; details: protein: recombinant; tags: N-terminal His6-YFP, C-terminal StrepII; blunt
T3 sequence: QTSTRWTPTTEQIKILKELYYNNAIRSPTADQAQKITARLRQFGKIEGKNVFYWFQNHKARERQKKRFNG

YFP-WUS-HD F101A = target: T4, YFP-WUS-HD F101A (Arabidopsis thaliana, UniProt Q9SB92 34-103, F101A); assay: as above; details: protein: recombinant; tags: N-terminal His6-YFP, C-terminal StrepII; blunt
T4 sequence: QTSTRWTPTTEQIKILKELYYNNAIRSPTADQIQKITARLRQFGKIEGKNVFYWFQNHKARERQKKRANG

YFP-WUS-HD F85A = target: T5, YFP-WUS-HD F85A (Arabidopsis thaliana, UniProt Q9SB92 34-103, F85A); assay: as above; details: protein: recombinant; tags: N-terminal His6-YFP, C-terminal StrepII; blunt
T5 sequence: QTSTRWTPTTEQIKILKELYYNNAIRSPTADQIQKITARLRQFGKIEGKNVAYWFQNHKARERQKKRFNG

WUS-HD [2] = target: T2, WUS-HD; assay: EMSA; MST: 20 mM Tris-HCl pH 8.0, 75 mM NaCl, 10 mM MgCl2, 0.05% Tween-20, 20 C, 50 nM YFP-WUS; ITC: same without Tween, 20 C; EMSA: 10 mM Tris-HCl pH 8.0, 75 mM NaCl, 50 ug/ml poly(dI-dC), 1 mM EDTA, 1 mM DTT, 5% glycerol; details: protein: recombinant; tags: none after TEV cleavage (from His6-MBP); label: Cy5; blunt
MBP-WUS-FL = target: T6, MBP-WUS-FL (Arabidopsis thaliana, UniProt Q9SB92 1-292); assay: as above; details: protein: recombinant; tags: N-terminal His6-MBP; chain copies: 2; label: Cy5; blunt
T6 sequence: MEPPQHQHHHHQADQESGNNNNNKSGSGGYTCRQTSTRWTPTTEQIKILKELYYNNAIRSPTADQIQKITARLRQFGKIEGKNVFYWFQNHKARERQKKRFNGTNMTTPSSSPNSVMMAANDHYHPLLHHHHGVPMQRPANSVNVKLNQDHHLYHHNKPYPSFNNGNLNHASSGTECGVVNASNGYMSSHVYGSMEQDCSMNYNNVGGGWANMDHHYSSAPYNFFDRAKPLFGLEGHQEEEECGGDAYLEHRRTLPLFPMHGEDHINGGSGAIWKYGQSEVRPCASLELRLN

WUS-HD [3] = target: T2, WUS-HD; assay: crystal structure; 2.8 A; two or three HD per DNA; MST: 20 mM Tris-HCl pH 8.0, 75 mM NaCl, 10 mM MgCl2, 0.05% Tween-20, 20 C, 50 nM YFP-WUS; ITC: same without Tween, 20 C; EMSA: 10 mM Tris-HCl pH 8.0, 75 mM NaCl, 50 ug/ml poly(dI-dC), 1 mM EDTA, 1 mM DTT, 5% glycerol; details: protein: recombinant; tags: none after TEV cleavage (from His6-MBP); blunt
YFP-WUS-HD T35R = target: T7, YFP-WUS-HD T35R (Arabidopsis thaliana, UniProt Q9SB92 34-103, T35R); assay: MST; MST: 20 mM Tris-HCl pH 8.0, 75 mM NaCl, 10 mM MgCl2, 0.05% Tween-20, 20 C, 50 nM YFP-WUS; ITC: same without Tween, 20 C; EMSA: 10 mM Tris-HCl pH 8.0, 75 mM NaCl, 50 ug/ml poly(dI-dC), 1 mM EDTA, 1 mM DTT, 5% glycerol; details: protein: recombinant; tags: N-terminal His6-YFP, C-terminal StrepII; blunt
T7 sequence: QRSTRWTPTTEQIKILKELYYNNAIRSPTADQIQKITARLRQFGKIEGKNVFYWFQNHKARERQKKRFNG

YFP-WUS-HD R94K = target: T8, YFP-WUS-HD R94K (Arabidopsis thaliana, UniProt Q9SB92 34-103, R94K); assay: as above; details: protein: recombinant; tags: N-terminal His6-YFP, C-terminal StrepII; blunt
T8 sequence: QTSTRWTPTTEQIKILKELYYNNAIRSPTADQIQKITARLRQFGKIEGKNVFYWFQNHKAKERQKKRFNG

YFP-WUS-HD S36R = target: T9, YFP-WUS-HD S36R (Arabidopsis thaliana, UniProt Q9SB92 34-103, S36R); assay: as above; details: protein: recombinant; tags: N-terminal His6-YFP, C-terminal StrepII; blunt
T9 sequence: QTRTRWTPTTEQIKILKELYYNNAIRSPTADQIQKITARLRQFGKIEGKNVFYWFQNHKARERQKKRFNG

WUS-HD [4] = target: T2, WUS-HD; assay: EMSA; shift slightly modified; MST: 20 mM Tris-HCl pH 8.0, 75 mM NaCl, 10 mM MgCl2, 0.05% Tween-20, 20 C, 50 nM YFP-WUS; ITC: same without Tween, 20 C; EMSA: 10 mM Tris-HCl pH 8.0, 75 mM NaCl, 50 ug/ml poly(dI-dC), 1 mM EDTA, 1 mM DTT, 5% glycerol; details: protein: recombinant; tags: none after TEV cleavage (from His6-MBP); label: Cy5; blunt

B1: 3xTGAT (dsDNA)
DNA 1: CGTGATTGATTGATCC
DNA 2: GGATCAATCAATCACG
YFP-WUS-HD
  Kd: 120 ± 10 nM

B2: 2xTGAA 1xSpacing (dsDNA)
DNA 1: CGCTGAACTGAACGCC
DNA 2: GGCGTTCAGTTCAGCG
YFP-WUS-HD
  Kd: 2210 ± 250 nM

B3: 1xTGAA (dsDNA)
DNA 1: CGCCGGTGAAGCCGCC
DNA 2: GGCGGCTTCACCGGCG
YFP-WUS-HD
  Kd: 10500 ± 2300 nM

B4: TGAA Head-to-Head (dsDNA)
DNA 1: CGCCTTCATGAACGCC
DNA 2: GGCGTTCATGAAGGCG
YFP-WUS-HD
  Kd: 3170 ± 350 nM

B5: 2xTGAA (dsDNA)
DNA 1: CGCCTGAATGAACGCC
DNA 2: GGCGTTCATTCAGGCG
WUS-HD [1]
  Kd: 1240 ± 140 nM
YFP-WUS-HD I66A
  Kd: 8200 ± 840 nM
YFP-WUS-HD F101A
  Kd: 800 ± 120 nM
YFP-WUS-HD
  Kd: 300 ± 40 nM
YFP-WUS-HD F85A
  Kd: 6810 ± 870 nM

B6: TGAA Tail-to-Tail (dsDNA)
DNA 1: CGCCTGAATTCACGCC
DNA 2: GGCGTGAATTCAGGCG
YFP-WUS-HD
  Kd: 1900 ± 200 nM

B7: 2xTGAA 4xSpacing (dsDNA)
DNA 1: CGTGAAGCGCTGAACC
DNA 2: GGTTCAGCGCTTCACG
YFP-WUS-HD
  Kd: 3580 ± 440 nM

B8: 3xTGAA 1xSpacing (dsDNA)
DNA 1: CTGAACTGAACTGAAC
DNA 2: GTTCAGTTCAGTTCAG
YFP-WUS-HD
  Kd: 840 ± 120 nM

B9: f_TAAT wt 16-bp (dsDNA)
DNA 1: GTGTTAATGGGTTGTG
DNA 2: CACAACCCATTAACAC
WUS-HD [2]
  binding result: binds

B10: f_G-Box (dsDNA)
DNA 1: CATCGTCGTCACGTGATGGG
DNA 2: CCCATCACGTGACGACGATG
MBP-WUS-FL
  Kd: 1680 ± 300 nM

B11: 3xTGAC (dsDNA)
DNA 1: CGTGACTGACTGACCC
DNA 2: GGGTCAGTCAGTCACG
YFP-WUS-HD
  Kd: 390 ± 50 nM

B12: G-Box 16-bp (dsDNA)
DNA 1: GTCGTCACGTGATGGG
DNA 2: CCCATCACGTGACGAC
YFP-WUS-HD
  Kd: 3780 ± 420 nM

B13: 3xTGAA (dsDNA)
DNA 1: CGTGAATGAATGAACC
DNA 2: GGTTCATTCATTCACG
YFP-WUS-HD
  Kd: 60 ± 10 nM

B14: f_TAAT T12C (dsDNA)
DNA 1: GTGTTAATGGGCTGTG
DNA 2: CACAGCCCATTAACAC
WUS-HD [2]
  binding result: binds

B15: TAAT 16-bp (dsDNA)
DNA 1: GTGTTAATGGGTTGTG
DNA 2: CACAACCCATTAACAC
WUS-HD [3]
  binding result: binds
YFP-WUS-HD T35R
  Kd: 1670 ± 200 nM
YFP-WUS-HD R94K
  Kd: 4590 ± 580 nM
YFP-WUS-HD S36R
  Kd: 1670 ± 170 nM

B16: 3xTGAG (dsDNA)
DNA 1: CGTGAGTGAGTGAGCC
DNA 2: GGCTCACTCACTCACG
YFP-WUS-HD
  Kd: 1420 ± 170 nM

B17: f_TAAT T12C,T15C (dsDNA)
DNA 1: GTGTTAATGGGCTGCG
DNA 2: CGCAGCCCATTAACAC
WUS-HD [4]
  binding result: binds

B18: TGAA 16-bp (dsDNA)
DNA 1: AGTGTATGAATGAACG
DNA 2: CGTTCATTCATACACT
YFP-WUS-HD T35R
  Kd: 540 ± 70 nM
YFP-WUS-HD R94K
  Kd: 11000 ± 1620 nM
YFP-WUS-HD S36R
  Kd: 320 ± 30 nM
YFP-WUS-HD
  Kd: 270 ± 30 nM

Reference: PMC7203112, “Structural basis for the complex DNA binding behavior of the plant stem cell regulator WUSCHEL”
